Reference: publication PMC6588284 (Biochemistry, 2019)
Blank lines part the entries; values can stand above or below the molecule they belong to.

Legend:
[1] = molecular target: SUMO-GCN4 fusion protein (Aeropyrum pernix | not stated); assay: cross-linking
[2] = molecular target: SUMO-GCN4 fusion protein (Aeropyrum pernix | not stated); assay: SEC
[3] = molecular target: SUMO CTD fusion with the native C247 residue (Aeropyrum pernix); assay: cross-linking
[4] = molecular target: KvAPΔCTD+Lys (Aeropyrum pernix); assay: cross-linking
[5] = molecular target: KvAP-C247S (Aeropyrum pernix); assay: cross-linking
[6] = molecular target: KvAP-C247S (Aeropyrum pernix); assay: cross-linking; remark: listed apart in the source
SEC = molecular target: the molecule itself; assay: SEC

stoichiometry N [1]: 4 | stoichiometry N [2]: 4
Molecule: SUMO-GCN4 fusion protein

stoichiometry N [3]: 2
Molecule: SUMO CTD fusion with the native C247 residue (domain or fragment)

percent cross-linked (tetramer) [4]: 100% | percent tetramer at 2 hours [4]: 4% | stoichiometry N [4]: 4 | tetramer yield relative to the full length protein [4]: 0.5
Molecule: KvAPΔCTD+Lys (domain or fragment)

stoichiometry N [5]: 4
Molecule: KvAP-C247S (natural protein)

percent decrease in the KvAP tetramer yield [6]: 60%
B1: S6-CTD peptide (peptide)
peptide: CVTATTVGYGDVVPATPIGKVIGIAVMLTGISALTLLIGTVSNMFQKILVGEPEPSSSPAKLAEMVSSMSEEEFEEFVRTLKNLRRLENSMKGS

Molecule: LVGEPEPSSSPAKLAEMVSSMSEEEFEEFVRTLKNLRRLENSMK (domain or fragment, Aeropyrum pernix) [SUMO-CTD fusion protein]
stoichiometry N (SEC): 2
